Patent publication US20140087995A1 (published 2014)
Each block holds one binder with its values, some of them ahead of it. Numbered stars: 1 amine (or outer) side, 2 acyl side, 3 side chain; on linkers, the order of the positions; unused ones are H or OH. Bridge positions count the residues as written; N and C are the ends. Side chains are listed from the residue outwards. Ends that are not written are not given here. * marks the point of attachment. C20 diacid = O=C(O)CCCCCCCCCCCCCCCCCCC(=O)*; γGlu = O=C(O)[C@H](CCC(=O)[*:2])N[*:1]; AEEA = NCCOCCOCC(=O)O

Target: T1, human calcitonin receptor (human, UniProt P30988 25-474)
T1 sequence (looked up): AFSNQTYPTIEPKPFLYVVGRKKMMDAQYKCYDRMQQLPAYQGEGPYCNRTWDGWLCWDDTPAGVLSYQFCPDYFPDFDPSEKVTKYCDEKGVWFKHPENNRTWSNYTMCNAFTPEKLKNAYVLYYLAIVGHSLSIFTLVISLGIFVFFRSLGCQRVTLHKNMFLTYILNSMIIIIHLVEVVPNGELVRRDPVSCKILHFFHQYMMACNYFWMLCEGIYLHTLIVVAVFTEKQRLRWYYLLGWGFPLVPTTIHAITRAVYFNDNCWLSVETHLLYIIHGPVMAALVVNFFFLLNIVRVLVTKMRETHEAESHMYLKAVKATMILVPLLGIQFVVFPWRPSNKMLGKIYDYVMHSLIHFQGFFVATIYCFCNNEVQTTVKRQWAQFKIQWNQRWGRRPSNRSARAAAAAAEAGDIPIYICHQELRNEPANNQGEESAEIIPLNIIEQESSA
Assay: cell-based or functional assay

B1: N^ε1-[2-[2-[2-[[(4S)-4-carboxy-4-(19-carboxynonadecanoylamino)butanoyl]amino]ethoxy]ethoxy]acetyl]-[Arg17,Pro21,Pro27,Pro34,His35]-h-amylin (peptide)
peptide: K([AEEA-γGlu-C20 diacid])CNTATCATQRLANFLRHSSPNFGAIPSSTNVGPHTY-NH2
modifications: disulfide 2-7; N-terminus assumed
SMILES: CC[C@H](C)[C@H](NC(=O)[C@H](C)NC(=O)CNC(=O)[C@H](Cc1ccccc1)NC(=O)[C@H](CC(N)=O)NC(=O)[C@@H]1CCCN1C(=O)[C@H](CO)NC(=O)[C@H](CO)NC(=O)[C@H](Cc1c[nH]cn1)NC(=O)[C@H](CCCNC(=N)N)NC(=O)[C@H](CC(C)C)NC(=O)[C@H](Cc1ccccc1)NC(=O)[C@H](CC(N)=O)NC(=O)[C@H](C)NC(=O)[C@H](CC(C)C)NC(=O)[C@H](CCCNC(=N)N)NC(=O)[C@H](CCC(N)=O)NC(=O)[C@@H](NC(=O)[C@H](C)NC(=O)[C@@H]1CSSC[C@H](NC(=O)[C@@H](N)CCCCNC(=O)COCCOCCNC(=O)CC[C@H](NC(=O)CCCCCCCCCCCCCCCCCCC(=O)O)C(=O)O)C(=O)N[C@@H](CC(N)=O)C(=O)N[C@@H]([C@@H](C)O)C(=O)N[C@@H](C)C(=O)N[C@@H]([C@@H](C)O)C(=O)N1)[C@@H](C)O)C(=O)N1CCC[C@H]1C(=O)N[C@@H](CO)C(=O)N[C@@H](CO)C(=O)N[C@H](C(=O)N[C@@H](CC(N)=O)C(=O)N[C@H](C(=O)NCC(=O)N1CCC[C@H]1C(=O)N[C@@H](Cc1c[nH]cn1)C(=O)N[C@H](C(=O)N[C@@H](Cc1ccc(O)cc1)C(N)=O)[C@@H](C)O)C(C)C)[C@@H](C)O
notes: analogue of human amylin; also called compound 58
- hCTR funct. EC50: 1030 pM

B3: N^ε1-[2-[2-[2-[[(4S)-4-carboxy-4-(19-carboxynonadecanoylamino)butanoyl]amino]ethoxy]ethoxy]acetyl]-[Arg17,Pro21,Pro27,Pro34]-h-amylin (peptide)
peptide: K([AEEA-γGlu-C20 diacid])CNTATCATQRLANFLRHSSPNFGAIPSSTNVGPNTY-NH2
modifications: disulfide 2-7; N-terminus assumed
SMILES: CC[C@H](C)[C@H](NC(=O)[C@H](C)NC(=O)CNC(=O)[C@H](Cc1ccccc1)NC(=O)[C@H](CC(N)=O)NC(=O)[C@@H]1CCCN1C(=O)[C@H](CO)NC(=O)[C@H](CO)NC(=O)[C@H](Cc1c[nH]cn1)NC(=O)[C@H](CCCNC(=N)N)NC(=O)[C@H](CC(C)C)NC(=O)[C@H](Cc1ccccc1)NC(=O)[C@H](CC(N)=O)NC(=O)[C@H](C)NC(=O)[C@H](CC(C)C)NC(=O)[C@H](CCCNC(=N)N)NC(=O)[C@H](CCC(N)=O)NC(=O)[C@@H](NC(=O)[C@H](C)NC(=O)[C@@H]1CSSC[C@H](NC(=O)[C@@H](N)CCCCNC(=O)COCCOCCNC(=O)CC[C@H](NC(=O)CCCCCCCCCCCCCCCCCCC(=O)O)C(=O)O)C(=O)N[C@@H](CC(N)=O)C(=O)N[C@@H]([C@@H](C)O)C(=O)N[C@@H](C)C(=O)N[C@@H]([C@@H](C)O)C(=O)N1)[C@@H](C)O)C(=O)N1CCC[C@H]1C(=O)N[C@@H](CO)C(=O)N[C@@H](CO)C(=O)N[C@H](C(=O)N[C@@H](CC(N)=O)C(=O)N[C@H](C(=O)NCC(=O)N1CCC[C@H]1C(=O)N[C@@H](CC(N)=O)C(=O)N[C@H](C(=O)N[C@@H](Cc1ccc(O)cc1)C(N)=O)[C@@H](C)O)C(C)C)[C@@H](C)O
notes: analogue of human amylin; also called compound 50
- hCTR funct. EC50: 662 pM

B5: N^ε1-[2-[2-[2-[[(4S)-4-carboxy-4-(19-carboxynonadecanoylamino)butanoyl]amino]ethoxy]ethoxy]acetyl]-[His14,Arg17,Pro21,Pro27,Pro31]-h-amylin (peptide)
peptide: K([AEEA-γGlu-C20 diacid])CNTATCATQRLAHFLRHSSPNFGAIPSSTPVGSNTY-NH2
modifications: disulfide 2-7; N-terminus assumed
SMILES: CC[C@H](C)[C@H](NC(=O)[C@H](C)NC(=O)CNC(=O)[C@H](Cc1ccccc1)NC(=O)[C@H](CC(N)=O)NC(=O)[C@@H]1CCCN1C(=O)[C@H](CO)NC(=O)[C@H](CO)NC(=O)[C@H](Cc1c[nH]cn1)NC(=O)[C@H](CCCNC(=N)N)NC(=O)[C@H](CC(C)C)NC(=O)[C@H](Cc1ccccc1)NC(=O)[C@H](Cc1c[nH]cn1)NC(=O)[C@H](C)NC(=O)[C@H](CC(C)C)NC(=O)[C@H](CCCNC(=N)N)NC(=O)[C@H](CCC(N)=O)NC(=O)[C@@H](NC(=O)[C@H](C)NC(=O)[C@@H]1CSSC[C@H](NC(=O)[C@@H](N)CCCCNC(=O)COCCOCCNC(=O)CC[C@H](NC(=O)CCCCCCCCCCCCCCCCCCC(=O)O)C(=O)O)C(=O)N[C@@H](CC(N)=O)C(=O)N[C@@H]([C@@H](C)O)C(=O)N[C@@H](C)C(=O)N[C@@H]([C@@H](C)O)C(=O)N1)[C@@H](C)O)C(=O)N1CCC[C@H]1C(=O)N[C@@H](CO)C(=O)N[C@@H](CO)C(=O)N[C@H](C(=O)N1CCC[C@H]1C(=O)N[C@H](C(=O)NCC(=O)N[C@@H](CO)C(=O)N[C@@H](CC(N)=O)C(=O)N[C@H](C(=O)N[C@@H](Cc1ccc(O)cc1)C(N)=O)[C@@H](C)O)C(C)C)[C@@H](C)O
notes: analogue of human amylin; also called compound 61
- hCTR funct. EC50: 554 pM

Next, values leading:

- hCTR funct. EC50: 932 pM
B2: N^ε1-[2-[2-[2-[[(4S)-4-carboxy-4-(19-carboxynonadecanoylamino)butanoyl]amino]ethoxy]ethoxy]acetyl]-[His14,Arg17,Pro21,Pro27,Pro34]-h-amylin (peptide)
peptide: K([AEEA-γGlu-C20 diacid])CNTATCATQRLAHFLRHSSPNFGAIPSSTNVGPNTY-NH2
modifications: disulfide 2-7; N-terminus assumed
SMILES: CC[C@H](C)[C@H](NC(=O)[C@H](C)NC(=O)CNC(=O)[C@H](Cc1ccccc1)NC(=O)[C@H](CC(N)=O)NC(=O)[C@@H]1CCCN1C(=O)[C@H](CO)NC(=O)[C@H](CO)NC(=O)[C@H](Cc1c[nH]cn1)NC(=O)[C@H](CCCNC(=N)N)NC(=O)[C@H](CC(C)C)NC(=O)[C@H](Cc1ccccc1)NC(=O)[C@H](Cc1c[nH]cn1)NC(=O)[C@H](C)NC(=O)[C@H](CC(C)C)NC(=O)[C@H](CCCNC(=N)N)NC(=O)[C@H](CCC(N)=O)NC(=O)[C@@H](NC(=O)[C@H](C)NC(=O)[C@@H]1CSSC[C@H](NC(=O)[C@@H](N)CCCCNC(=O)COCCOCCNC(=O)CC[C@H](NC(=O)CCCCCCCCCCCCCCCCCCC(=O)O)C(=O)O)C(=O)N[C@@H](CC(N)=O)C(=O)N[C@@H]([C@@H](C)O)C(=O)N[C@@H](C)C(=O)N[C@@H]([C@@H](C)O)C(=O)N1)[C@@H](C)O)C(=O)N1CCC[C@H]1C(=O)N[C@@H](CO)C(=O)N[C@@H](CO)C(=O)N[C@H](C(=O)N[C@@H](CC(N)=O)C(=O)N[C@H](C(=O)NCC(=O)N1CCC[C@H]1C(=O)N[C@@H](CC(N)=O)C(=O)N[C@H](C(=O)N[C@@H](Cc1ccc(O)cc1)C(N)=O)[C@@H](C)O)C(C)C)[C@@H](C)O
notes: analogue of human amylin; also called compound 68

- hCTR funct. EC50: 1250 pM
B4: N^ε1-[2-[2-[2-[[(4S)-4-carboxy-4-(19-carboxynonadecanoylamino)butanoyl]amino]ethoxy]ethoxy]acetyl]-[His14,Arg17,Pro21,Pro27]-h-amylin (peptide)
peptide: K([AEEA-γGlu-C20 diacid])CNTATCATQRLAHFLRHSSPNFGAIPSSTNVGSNTY-NH2
modifications: disulfide 2-7; N-terminus assumed
SMILES: CC[C@H](C)[C@H](NC(=O)[C@H](C)NC(=O)CNC(=O)[C@H](Cc1ccccc1)NC(=O)[C@H](CC(N)=O)NC(=O)[C@@H]1CCCN1C(=O)[C@H](CO)NC(=O)[C@H](CO)NC(=O)[C@H](Cc1c[nH]cn1)NC(=O)[C@H](CCCNC(=N)N)NC(=O)[C@H](CC(C)C)NC(=O)[C@H](Cc1ccccc1)NC(=O)[C@H](Cc1c[nH]cn1)NC(=O)[C@H](C)NC(=O)[C@H](CC(C)C)NC(=O)[C@H](CCCNC(=N)N)NC(=O)[C@H](CCC(N)=O)NC(=O)[C@@H](NC(=O)[C@H](C)NC(=O)[C@@H]1CSSC[C@H](NC(=O)[C@@H](N)CCCCNC(=O)COCCOCCNC(=O)CC[C@H](NC(=O)CCCCCCCCCCCCCCCCCCC(=O)O)C(=O)O)C(=O)N[C@@H](CC(N)=O)C(=O)N[C@@H]([C@@H](C)O)C(=O)N[C@@H](C)C(=O)N[C@@H]([C@@H](C)O)C(=O)N1)[C@@H](C)O)C(=O)N1CCC[C@H]1C(=O)N[C@@H](CO)C(=O)N[C@@H](CO)C(=O)N[C@H](C(=O)N[C@@H](CC(N)=O)C(=O)N[C@H](C(=O)NCC(=O)N[C@@H](CO)C(=O)N[C@@H](CC(N)=O)C(=O)N[C@H](C(=O)N[C@@H](Cc1ccc(O)cc1)C(N)=O)[C@@H](C)O)C(C)C)[C@@H](C)O
notes: analogue of human amylin; also called compound 69
